The values below come from paper PMC5508000, “Identification of the Components Involved in Cyclic Di-AMP Signaling in Mycoplasma pneumoniae” (Frontiers in Microbiology, 2017).

The subject of data set [1] is O=[N+]([O-])c1ccc(OP(=O)(O)Oc2ccc([N+](=O)[O-])cc2)cc1. Kind of data set: OD410 nitrophenol release, microplate. The data set is classed as biochemical, Mycoplasmoides pneumoniae. The following applies: MnCl2 0.1 mM, 100 mM Tris-HCl pH 8.3, 10 mM NaCl, 37 °C. The source says: OD410 nitrophenol release, microplate on MPN549 (PdeM)
Data set [2] addresses T1, KtrC (MPN461) (Mycoplasmoides pneumoniae, UniProt P75322).
T1 construct: gene MPN_461; native protein from M. pneumoniae cell extract, identified by mass spectrometry
T1 sequence (P75322 1-231): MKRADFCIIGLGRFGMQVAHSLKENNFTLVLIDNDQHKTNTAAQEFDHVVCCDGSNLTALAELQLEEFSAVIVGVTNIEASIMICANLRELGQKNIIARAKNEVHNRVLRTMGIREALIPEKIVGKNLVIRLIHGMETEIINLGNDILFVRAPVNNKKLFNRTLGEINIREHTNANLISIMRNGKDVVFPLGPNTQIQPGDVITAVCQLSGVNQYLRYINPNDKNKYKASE
Kind of data set: pull-down on c-di-AMP agarose, elution with free c-di-AMP, MS identification. The following applies: labelled compound: immobilised 2'-AHC-c-di-AMP agarose, eluted with 1 mM free c-di-AMP; cell extract; pH 7.5, 4 °C. The data set is classed as binding.

Substrate in data set [3]: O=[N+]([O-])c1ccc(OP(=O)(O)Oc2ccc([N+](=O)[O-])cc2)cc1
Kind of data set: OD410 nitrophenol release, microplate. The format is biochemical, Mycoplasmoides pneumoniae. To be noted: MnCl2 0.1 mM, 100 mM Tris-HCl pH 8.3, 10 mM NaCl, 37 °C. The source says:
OD410 nitrophenol release, microplate on MPN140 (NrnA)
The source holds these as a separate data set.

Substrate in data set [4]: O=[N+]([O-])c1ccc(OP(=O)(O)Oc2ccc([N+](=O)[O-])cc2)cc1
Kind of data set: OD410 nitrophenol release, microplate. The data set is classed as biochemical, Bacillus subtilis. The following applies: MnCl2 0.1 mM, 100 mM Tris-HCl pH 8.3, 10 mM NaCl, 37 °C. The source says: OD410 nitrophenol release, microplate on GdpP

For “MPN549 (PdeM) (Mycoplasmoides pneumoniae M129)”, the Km in data set [1] came out at 600 µM.

`Nc1ncnc2c1ncn2[C@@H]1O[C@@H]2COP(=O)(O)O[C@H]3[C@@H](O)[C@H](n4cnc5c(N)ncnc54)O[C@@H]3COP(=O)(O)O[C@H]2[C@H]1O` [c-di-AMP]: in data set [2], the “pull-down on c-di-AMP agarose, elution with free c-di-AMP, MS identification” value is given as “c-di-AMP-binding proteins were eluted with free c-di-AMP”.

B1: MPN140 (NrnA) (Mycoplasmoides pneumoniae M129) (protein)
chain: MNSQVHRKGSIAEAVSAIQAHDKIVIFHHIRPDGDCLGAQHGLARLIQTNFPHKQVFCVGDPKHNFPWLEMVFTPKEQITPELMQQALAVIVDANYKERIECRDLLDQNQFKAVLRIDHHPNEDDLNTTHNFVDASYIAAAEQVVDLAVQAKWKLSPPAATALYLGIYTDSNRFLYSNTSWRTLYLGSMLYRAQANIAKIHDELNHTSLKDIQFKQYVFKNFQTFQNVIYFVADKKFQKKLKVTPLECARVNILANIEQFHIWLFFIEEGKNHYRVEFRSNGINVREVALKYGGGGHIQASGAVLKSKRDIIRVVQDCQKQIAV
With B1, in data set [3], the Michaelis constant (Km) was 1600 µM and the kcat is 3.67e-06 s⁻¹.

B2: GdpP (Bacillus subtilis subsp. subtilis str. 168) (protein)
chain: PIGIMLFNDQYYIEWANPFLSSCFNESTLVGRSLYDTCESVVPLIKQEVESETVTLNDRKFRVVIKRDERLLYFFDVTEQIQIEKLYENERTVLAYIFLDNYDDVTQGLDDQTRSTMNSQVTSLLNAWAQEYGIFLKRTSSERFIAVLNEHILTELENSKFSILDEVREKTSFDGVALTLSVGVGASVSSLKELGDLAQSSLDLALGRGGDQVAIKLPNGKVKFYGGKTNPMEKRTRVRARVISHALKEIVTESSNVIIMGHKFPDMDSIGAAIGILKVAQANNKDGFIVIDPNQIGSSVQRLIGEIKKYEELWSRFITPEEAMEISNDDTLLVIVDTHKPSLVMEERLVNKIEHIVVIDHHRRGEEFIRDPLLVYMEPYASSTAELVTELLEYQPKRLKINMIEATALLAGIIVDTKSFSLRTGSRTFDAASYLRAKGADTVLVQKFLKETVDSYIKRAKLIQHTVLYKDNIAIASLPENEEEYFDQVLIAQAADSLLSMSEVEASFAVARRDEQTVCISARSLGEVNVQIIMEALEGGGHLTNAATQLSGISVSEALERLKHAIDEYFEGGVQR
notes: cytoplasmic portion, residues 84-659, C-terminal Strep-tag, expressed in E. coli BL21(DE3), plasmid pGP2720
Turning to B2, the Km in data set [4] came out at 1450 µM.
